# US20250218531A1 (ABSCI, published 2025)
# T1: human vascular endothelial growth factor A (VEGF-A) (human, UniProt P15692 220-313)
# T1 sequence: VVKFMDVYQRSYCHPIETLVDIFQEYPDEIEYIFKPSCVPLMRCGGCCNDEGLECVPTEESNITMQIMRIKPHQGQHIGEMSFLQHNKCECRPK
# Experiments:
# [1] = target: T2, human epidermal growth factor receptor 2 (HER2) extracellular domain (human, UniProt P04626 23-629); assay: SPR, table row 40
# [2] = target: T2, human epidermal growth factor receptor …; assay: SPR, table row 28
# [3] = target: T2, human epidermal growth factor receptor …; assay: SPR, table row 25
# [4] = target: T2, human epidermal growth factor receptor …; assay: SPR, table row 39
# [5] = target: T2, human epidermal growth factor receptor …; assay: SPR, table row 42
# [6] = target: T2, human epidermal growth factor receptor …; assay: SPR, table row 38
# [7] = target: T2, human epidermal growth factor receptor …; assay: SPR, table row 35
# [8] = target: T2, human epidermal growth factor receptor …; assay: SPR, table row 32
# [9] = target: T1, human vascular endothelial growth …; assay: SPR, Fab format
binder,measurement,setting,value
"Trast_Her2_76 (Fab, V domains shown, also called HCDR3 AMDFKFTRLDL) VH: EVQLVESGGGLVQPGGSLRLSCAASGFNIKDTYIHWVRQAPGKGLEWVARIYPTNGYTRYADSVKGRFTISADTSKNTAYLQMNSLRAEDTAVYYCAMDFKFTRLDLWGQGTLVTVSS VL: not shown",Kd,[1],159 nM
same,koff,[1],0.00525 s⁻¹
same,kon,[1],33100 M⁻¹ s⁻¹
same,Kd,[2],36.4 nM
same,koff,[2],0.00127 s⁻¹
same,kon,[2],35000 M⁻¹ s⁻¹
"Trast_Her2_229 (Fab, V domains shown, also called HCDR3 ARFDRYGYYLGT) VH: EVQLVESGGGLVQPGGSLRLSCAASGFNIKDTYIHWVRQAPGKGLEWVARIYPTNGYTRYADSVKGRFTISADTSKNTAYLQMNSLRAEDTAVYYCARFDRYGYYLGTWGQGTLVTVSS VL: not shown",Kd,[3],30.4 nM
same,koff,[3],0.000635 s⁻¹
same,kon,[3],20900 M⁻¹ s⁻¹
same,Kd,[4],114 nM
same,koff,[4],0.00201 s⁻¹
same,kon,[4],17700 M⁻¹ s⁻¹
"Trast_Her2_230 (Fab, V domains shown, also called HCDR3 ARFDRYGYYLGT) VH: EVQLVESGGGLVQPGGSLRLSCAASGFNIKDTYIHWVRQAPGKGLEWVARIYPTNGYTRYADSVKGRFTISADTSKNTAYLQMNSLRAEDTAVYYCARFDRYGYYLGTWGQGTLVTVSS VL: not shown",Kd,[5],198 nM
same,koff,[5],0.0046 s⁻¹
same,kon,[5],23300 M⁻¹ s⁻¹
same,Kd,[6],104 nM
same,koff,[6],0.0023 s⁻¹
same,kon,[6],22100 M⁻¹ s⁻¹
"Trast_Her2_59 (Fab, V domains shown, also called HCDR3 AKRNAYRGSLDY) VH: EVQLVESGGGLVQPGGSLRLSCAASGFNIKDTYIHWVRQAPGKGLEWVARIYPTNGYTRYADSVKGRFTISADTSKNTAYLQMNSLRAEDTAVYYCAKRNAYRGSLDYWGQGTLVTVSS VL: not shown",Kd,[7],64.9 nM
same,koff,[7],0.00077 s⁻¹
same,kon,[7],11900 M⁻¹ s⁻¹
same,Kd,[8],51.1 nM
same,koff,[8],0.000717 s⁻¹
same,kon,[8],14000 M⁻¹ s⁻¹
"De novo ranibizumab HCDR3 variant ASGNFSYPDDYGMDW (SEQ ID NO: 50) (Fab, V domains shown) VH: EVQLVESGGGLVQPGGSLRLSCAASGYDFTHYGMNWVRQAPGKGLEWVGWINTYTGEPTYAADFKRRFTFSLDTSKSTAYLQMNSLRAEDTAVYYCASGNFSYPDDYGMDWWGQGTLVTVSS VL: DIQLTQSPSSLSASVGDRVTITCSASQDISNYLNWYQQKPGKAPKVLIYFTSSLHSGVPSRFSGSGSGTDFTLTISSLQPEDFATYYCQQYSTVPWTFGQGTKVEIKR",Kd,[9],48.2 nM
